Biological target: CD19 on tumor target cells (UniProt P15391)
Experiment: cell-based or functional assay

Sequence of UniProt P15391 (P15391 20-556 limits assumed): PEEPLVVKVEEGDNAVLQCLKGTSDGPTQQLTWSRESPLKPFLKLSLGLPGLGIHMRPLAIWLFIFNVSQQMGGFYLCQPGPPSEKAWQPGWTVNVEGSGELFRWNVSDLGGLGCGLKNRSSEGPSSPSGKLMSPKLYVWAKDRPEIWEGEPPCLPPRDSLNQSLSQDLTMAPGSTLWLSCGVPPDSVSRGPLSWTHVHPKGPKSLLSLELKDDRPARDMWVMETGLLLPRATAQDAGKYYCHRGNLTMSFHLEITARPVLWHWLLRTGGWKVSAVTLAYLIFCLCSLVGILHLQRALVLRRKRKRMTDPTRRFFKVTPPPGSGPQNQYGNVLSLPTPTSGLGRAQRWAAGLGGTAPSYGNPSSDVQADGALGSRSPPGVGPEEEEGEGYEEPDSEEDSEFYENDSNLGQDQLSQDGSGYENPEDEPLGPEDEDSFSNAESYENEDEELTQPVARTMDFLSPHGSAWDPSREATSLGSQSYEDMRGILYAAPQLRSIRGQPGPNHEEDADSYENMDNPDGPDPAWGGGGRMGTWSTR

Row | percentage of specific cell lysis (4-hour Chromium Release Assay) [%] | Substance
1 | 49 | Clinical-grade CD19RCD28mζ CAR (CoOpCD19RCD28ζ), on T cells
2 | 52 | EZ CAR CD19RCD28mζ CAR (CD19-specific CAR activated through chimeric CD28/CD3-zeta, made with the EZ CAR platform), on T cells

— patent publication US20170183407A1
